T1: PknB1-279 (His-tagged catalytic kinase domain of Mycobacterium tuberculosis Ser/Thr protein kinase PknB, aa 1-279), P9WI81
T1 chain: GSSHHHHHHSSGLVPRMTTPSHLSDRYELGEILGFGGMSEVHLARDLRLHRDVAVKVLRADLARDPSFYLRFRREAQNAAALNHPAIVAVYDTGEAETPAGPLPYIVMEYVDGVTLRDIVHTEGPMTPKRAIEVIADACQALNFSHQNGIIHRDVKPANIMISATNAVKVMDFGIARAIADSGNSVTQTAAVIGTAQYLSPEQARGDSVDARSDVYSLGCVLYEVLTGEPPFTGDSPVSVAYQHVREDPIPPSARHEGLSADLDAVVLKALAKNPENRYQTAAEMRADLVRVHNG

B1: PstP1-240 (His-tagged catalytic domain of Mycobacterium tuberculosis Ser/Thr protein phosphatase PstP, aa 1-240) (protein)
chain: MARVTLVLRYAARSDRGLVRANNEDSVYAGARLLALADGMGGHAAGEVASQLVIAALAHLDDDEPGGDLLAKLDAAVRAGNSAIAAQVEMEPDLEGMGTTLTAILFAGNRLGLVHIGDSRGYLLRDGELTQITKDDTFVQTLVDEGRITPEEAHSHPQRSLIMRALTGHEVEPTLTMREARAGDRYLLCSDGLSDPVSDETILEALQIPEVAESAHRLIELALRGGGPDNVTVVVADVVD

How the values were obtained:
[1] = molecular target: PknB1-279 (His-tagged catalytic kinase domain of Mycobacterium tuberculosis Ser/Thr protein kinase PknB, aa 1-279) (Mycobacterium tuberculosis) (UniProt P9WI81); assay: cell-based or functional assay
[2] = molecular target: T1, PknB1-279 (His-tagged catalytic kinase …)

Row | Molecule | MALDI-TOF mass of PknB1-279 after phosphatase treatment (phosphate groups removed) (phosphate groups) [1] | dephosphorylation of autophosphorylated [33P]-PknB1-279 by PstP (SDS-PAGE, autoradiography, band shift) [2] | kinase activity of PknB on MBP with thio-γATP after preincubation with PstP [2]
1 | PstP1-240 (His-tagged catalytic domain of Mycobacterium tuberculosis Ser/Thr protein phosphatase PstP, aa 1-240) (from UniProt P9WHW4 1-240) (enzyme) | 3 | – | –
2 | B1 | – | PstP is capable of dephosphorylating PknB | prior dephosphorylation of PknB by PstP inhibits kinase activity on MBP

From patent publication US20070128678A1
